Reference: PMC4705995, “The Protein Interaction of RNA Helicase B (RhlB) and Polynucleotide Phosphorylase (PNPase) Contributes to the Homeostatic Control of Cysteine in Escherichia coli*” (The Journal of Biological Chemistry, 2015)

T1: FlagRhlB^P238L (Flag-tagged RhlB^P238L) (Escherichia coli, UniProt P0A8J8 1-421, P238L)
T1 sequence: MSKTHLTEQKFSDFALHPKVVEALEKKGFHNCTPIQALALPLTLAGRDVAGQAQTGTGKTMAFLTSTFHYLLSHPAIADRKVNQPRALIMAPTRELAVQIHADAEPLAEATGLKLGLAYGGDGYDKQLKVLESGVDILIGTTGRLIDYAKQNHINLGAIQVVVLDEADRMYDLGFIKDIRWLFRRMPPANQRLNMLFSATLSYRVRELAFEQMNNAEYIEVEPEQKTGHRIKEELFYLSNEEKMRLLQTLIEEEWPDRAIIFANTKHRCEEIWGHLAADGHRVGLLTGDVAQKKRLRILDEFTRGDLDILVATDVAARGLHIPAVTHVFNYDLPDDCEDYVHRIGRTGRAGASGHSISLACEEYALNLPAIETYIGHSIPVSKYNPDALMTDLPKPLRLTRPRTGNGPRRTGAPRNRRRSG

T2: FlagPNPase (Flag-tagged PNP) (Escherichia coli, UniProt P05055 1-711)
T2 construct: polynucleotide phosphorylase (PNPase) of Escherichia coli; also called pFlagPNP; polynucleotide phosphorylase
T2 sequence (looked up): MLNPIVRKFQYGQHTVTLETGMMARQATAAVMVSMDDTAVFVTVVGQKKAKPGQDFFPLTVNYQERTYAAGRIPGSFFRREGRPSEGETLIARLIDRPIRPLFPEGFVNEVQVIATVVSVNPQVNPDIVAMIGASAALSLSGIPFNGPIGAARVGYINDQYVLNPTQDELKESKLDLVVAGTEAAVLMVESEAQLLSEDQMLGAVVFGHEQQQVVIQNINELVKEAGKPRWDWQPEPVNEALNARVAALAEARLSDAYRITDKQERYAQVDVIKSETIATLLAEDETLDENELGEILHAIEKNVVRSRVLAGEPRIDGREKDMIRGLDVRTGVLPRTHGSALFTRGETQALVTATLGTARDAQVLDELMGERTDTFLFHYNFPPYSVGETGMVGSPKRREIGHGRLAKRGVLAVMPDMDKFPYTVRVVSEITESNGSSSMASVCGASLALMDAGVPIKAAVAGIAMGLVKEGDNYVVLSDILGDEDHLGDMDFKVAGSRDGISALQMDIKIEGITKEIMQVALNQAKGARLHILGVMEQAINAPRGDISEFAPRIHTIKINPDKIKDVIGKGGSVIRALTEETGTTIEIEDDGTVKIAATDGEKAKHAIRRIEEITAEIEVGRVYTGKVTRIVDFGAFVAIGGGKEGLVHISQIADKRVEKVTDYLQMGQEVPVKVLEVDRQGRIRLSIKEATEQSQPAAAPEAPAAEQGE

B1: FlagPNPase (Flag-tagged PNP) (enzyme)
chain: MLNPIVRKFQYGQHTVTLETGMMARQATAAVMVSMDDTAVFVTVVGQKKAKPGQDFFPLTVNYQERTYAAGRIPGSFFRREGRPSEGETLIARLIDRPIRPLFPEGFVNEVQVIATVVSVNPQVNPDIVAMIGASAALSLSGIPFNGPIGAARVGYINDQYVLNPTQDELKESKLDLVVAGTEAAVLMVESEAQLLSEDQMLGAVVFGHEQQQVVIQNINELVKEAGKPRWDWQPEPVNEALNARVAALAEARLSDAYRITDKQERYAQVDVIKSETIATLLAEDETLDENELGEILHAIEKNVVRSRVLAGEPRIDGREKDMIRGLDVRTGVLPRTHGSALFTRGETQALVTATLGTARDAQVLDELMGERTDTFLFHYNFPPYSVGETGMVGSPKRREIGHGRLAKRGVLAVMPDMDKFPYTVRVVSEITESNGSSSMASVCGASLALMDAGVPIKAAVAGIAMGLVKEGDNYVVLSDILGDEDHLGDMDFKVAGSRDGISALQMDIKIEGITKEIMQVALNQAKGARLHILGVMEQAINAPRGDISEFAPRIHTIKINPDKIKDVIGKGGSVIRALTEETGTTIEIEDDGTVKIAATDGEKAKHAIRRIEEITAEIEVGRVYTGKVTRIVDFGAFVAIGGGKEGLVHISQIADKRVEKVTDYLQMGQEVPVKVLEVDRQGRIRLSIKEATEQSQPAAAPEAPAAEQGE

Assays:
[1] = molecular target: T1, FlagRhlB^P238L (Flag-tagged RhlB^P238L); assay: SPR
[2] = molecular target: T1, FlagRhlB^P238L (Flag-tagged RhlB^P238L); assay: SPR; remark: listed apart in the source
[3] = molecular target: B1; assay: SPR
[4] = molecular target: B1; assay: SPR
[5] = molecular target: T2, FlagPNPase (Flag-tagged PNP); assay: SPR; Biacore X; purified FlagPNPase immobilised on a CM5 chip by amine coupling; 0.75 to 24 uM FlagRhlB injected at 10 ul/min, 25 °C; settings: both partners purified

Row | Binder | koff [1] | Kd [2] | koff [3] | Kd [4] | kon [5]
1 | B1 | 0.00207 s⁻¹ | 6.64 µM | – | – | –
2 | FlagRhlB^wt (Flag-tagged wild-type RhlB) (enzyme, Escherichia coli, UniProt P0A8J8 1-421, looked up, RNA helicase B (RhlB) of Escherichia coli; also called pFlagRhlB^wt) MSKTHLTEQKFSDFALHPKVVEALEKKGFHNCTPIQALALPLTLAGRDVAGQAQTGTGKTMAFLTSTFHYLLSHPAIADRKVNQPRALIMAPTRELAVQIHADAEPLAEATGLKLGLAYGGDGYDKQLKVLESGVDILIGTTGRLIDYAKQNHINLGAIQVVVLDEADRMYDLGFIKDIRWLFRRMPPANQRLNMLFSATLSYRVRELAFEQMNNAEYIEVEPEQKTGHRIKEELFYPSNEEKMRLLQTLIEEEWPDRAIIFANTKHRCEEIWGHLAADGHRVGLLTGDVAQKKRLRILDEFTRGDLDILVATDVAARGLHIPAVTHVFNYDLPDDCEDYVHRIGRTGRAGASGHSISLACEEYALNLPAIETYIGHSIPVSKYNPDALMTDLPKPLRLTRPRTGNGPRRTGAPRNRRRSG | – | – | 0.0021 s⁻¹ | 1.67 µM | 1260 M⁻¹ s⁻¹
3 | FlagRhlB^P238L (Flag-tagged RhlB^P238L) (enzyme, Escherichia coli, UniProt P0A8J8 1-421, looked up, RNA helicase B (RhlB) of Escherichia coli with P238L, introduced into pFlagRhlB by site-directed mutagenesis; also called pFlagRhlB^P238L) MSKTHLTEQKFSDFALHPKVVEALEKKGFHNCTPIQALALPLTLAGRDVAGQAQTGTGKTMAFLTSTFHYLLSHPAIADRKVNQPRALIMAPTRELAVQIHADAEPLAEATGLKLGLAYGGDGYDKQLKVLESGVDILIGTTGRLIDYAKQNHINLGAIQVVVLDEADRMYDLGFIKDIRWLFRRMPPANQRLNMLFSATLSYRVRELAFEQMNNAEYIEVEPEQKTGHRIKEELFYLSNEEKMRLLQTLIEEEWPDRAIIFANTKHRCEEIWGHLAADGHRVGLLTGDVAQKKRLRILDEFTRGDLDILVATDVAARGLHIPAVTHVFNYDLPDDCEDYVHRIGRTGRAGASGHSISLACEEYALNLPAIETYIGHSIPVSKYNPDALMTDLPKPLRLTRPRTGNGPRRTGAPRNRRRSG | – | – | – | – | 311 M⁻¹ s⁻¹
